Reference: doi:10.1101/2020.08.06.226779 (bioRxiv, 2020)

Molecular target: the molecule itself
Assay: SEC-MALS

B1: recombinant BCAS0292 (natural protein)
chain: MSGVRCDGLAIVDAVTLLSAYPDASRDADAPTVIDGRHIYVLRPGDAGQVGHNDNRLFAGLSPGDQLHLRETALALRAEVTVLFIRFALKDAGIVAPIEAEIRDAATPVPDGDDLLHPSCRPMKDHFWRSEVLAPGITTCTADFAVLDRDGAVSGYFRWETAIEIAGSRPDTKQPGVEP
  stoichiometry N: 2
